Patent publication US20220025037A1 (DRAGONFLY THERAPEUTICS, published 2022)

Tests used:
[1] = target: recombinant human DLL3 (ELISA coat) (human) (UniProt Q9NYJ7); assay: ELISA on coated recombinant human DLL3, anti-mouse IgG-HRP
human DLL3-His [2] = target: T1, human DLL3-His (human, UniProt Q9NYJ7 27-492, limits assumed); assay: SPR (Biacore 8K), 37 C, antibody captured on anti-mouse Fc, human DLL3-His injected, 1:1 fit
T1 construct: also called hDLL3
T1 sequence (looked up): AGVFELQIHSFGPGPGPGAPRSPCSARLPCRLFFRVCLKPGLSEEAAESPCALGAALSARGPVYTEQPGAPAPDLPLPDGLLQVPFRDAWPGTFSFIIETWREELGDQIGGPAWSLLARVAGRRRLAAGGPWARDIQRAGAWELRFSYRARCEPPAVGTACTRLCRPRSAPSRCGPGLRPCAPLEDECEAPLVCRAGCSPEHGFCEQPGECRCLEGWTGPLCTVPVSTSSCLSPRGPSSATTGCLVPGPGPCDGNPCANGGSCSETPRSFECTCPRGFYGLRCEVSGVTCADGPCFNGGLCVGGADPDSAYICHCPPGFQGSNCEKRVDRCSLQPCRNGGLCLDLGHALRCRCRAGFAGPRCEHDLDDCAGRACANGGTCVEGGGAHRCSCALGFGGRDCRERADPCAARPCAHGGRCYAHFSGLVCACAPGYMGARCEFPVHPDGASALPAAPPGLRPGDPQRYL
Source text: (§1) The kinetics of binding of different humanized variants and parental murine 5E7 antibody to human DLL3-His was studied by Surface Plasmon Resonance using a Biacore 8K instrument. Briefly, anti-hFc and anti-mFc IgG proteins were covalently immobilized onto different channels of CM5 chip to allow simultaneous analysis of human and murine antibodies. m5E7 was captured on the anti-mouse Fc channel and humanized variants were captured on the anti-human Fc channel at a desired capture level of ˜56 RU in HBS-EP+ buffer supplemented with 0.1% BSA. Three buffer blanks and human DLL3-His (analyte) at concentrations 0.411-300 nM (in three fold dilutions) were injected over the surface with captured murine or humanized 5E7 for 300 second association time and let dissociate for 600 second at a flow rate of 30 μL/min. The surfaces were subjected to regeneration with three 20-second pulses of 10 mM glycine pH 1.70 at a flow rate of 100 μL/min between every concentration of analyte. The experiment was conducted at 37° C. Data were double referenced and a 1:1 fit model was applied to the sensorgrams in the Biacore Insight Evaluation software.
(§2) The kinetic parameters of human DLL3-His binding to murine and humanized variants of 5E7 antibody variants were calculated and shown in Table 12.

recombinant human DLL4 = target: T2, recombinant human DLL4 (human, UniProt Q9NR61 27-524, limits assumed); assay: ELISA, plate coated with recombinant human DLL4 at 0.5 ug/ml, anti-mouse IgG-HRP/TMB, signal as % of positive control max
T2 construct: Coated on plates at 0.5 µg/ml
Description: To investigate the binding of anti-DLL3 antibodies to human DLL3, wells of high binding flat-bottom plates were coated with recombinant human DLL3 diluted to 0.5 μg/ml. To assess cross-reactivity of the antibodies to DLL1/DLL4, which are closely related family members to DLL3, plates were coated with recombinant human DLL1 diluted to 1 μg/ml, or human DLL4 diluted to 0.5 μg/ml. […] Binding was detected using anti-mouse IgG-HRP and 3,3′,5,5′-Tetramethylbenzidine (TMB) substrate. Signals were normalized to the corresponding positive control antibody.

[3] = target: T3, DLL3 on RPMI-8226 cells transduced to express the full-length extracellular portion of DLL3 (UniProt Q9NYJ7 27-492, limits assumed); assay: flow cytometry on RPMI-8226 cells transduced to express DLL3, fluorophore-conjugated anti-human IgG secondary, MFI
T3 construct: extracellular domain; also called DLL3+ RPMI-8226 cells; cell surface DLL3
T3 sequence (looked up): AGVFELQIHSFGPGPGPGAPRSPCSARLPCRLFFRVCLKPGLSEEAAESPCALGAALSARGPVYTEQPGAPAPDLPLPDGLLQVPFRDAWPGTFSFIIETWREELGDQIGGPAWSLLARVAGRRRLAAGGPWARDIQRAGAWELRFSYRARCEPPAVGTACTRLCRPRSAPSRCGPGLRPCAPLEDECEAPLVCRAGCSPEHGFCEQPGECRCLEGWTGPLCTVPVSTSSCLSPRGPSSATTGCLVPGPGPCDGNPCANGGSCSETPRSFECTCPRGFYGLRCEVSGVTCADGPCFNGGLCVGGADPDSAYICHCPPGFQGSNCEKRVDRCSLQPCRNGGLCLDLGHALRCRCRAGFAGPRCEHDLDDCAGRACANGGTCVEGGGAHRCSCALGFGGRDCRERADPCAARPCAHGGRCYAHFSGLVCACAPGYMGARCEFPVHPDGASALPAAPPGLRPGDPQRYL
Description: To assess the binding of the mAbs to DLL3 positive cells, human myeloma cell line RPMI-8226 was transduced to express the full-length extracellular portion of DLL3. Anti-DLL3 mAbs were diluted and incubated with DLL3⁺ RPMI-8226 cells. The cells were analyzed by flow cytometry and binding of a mAb was detected using a fluorophore conjugated anti-human IgG secondary antibody.

human DLL3-His [4] = target: T1, human DLL3-His; assay: SPR (Biacore 8K), 37 C, antibody captured on anti-human Fc, human DLL3-His injected, 1:1 fit
Source text: as §1, §2

T2 sequence (Q9NR61 27-524 limits assumed): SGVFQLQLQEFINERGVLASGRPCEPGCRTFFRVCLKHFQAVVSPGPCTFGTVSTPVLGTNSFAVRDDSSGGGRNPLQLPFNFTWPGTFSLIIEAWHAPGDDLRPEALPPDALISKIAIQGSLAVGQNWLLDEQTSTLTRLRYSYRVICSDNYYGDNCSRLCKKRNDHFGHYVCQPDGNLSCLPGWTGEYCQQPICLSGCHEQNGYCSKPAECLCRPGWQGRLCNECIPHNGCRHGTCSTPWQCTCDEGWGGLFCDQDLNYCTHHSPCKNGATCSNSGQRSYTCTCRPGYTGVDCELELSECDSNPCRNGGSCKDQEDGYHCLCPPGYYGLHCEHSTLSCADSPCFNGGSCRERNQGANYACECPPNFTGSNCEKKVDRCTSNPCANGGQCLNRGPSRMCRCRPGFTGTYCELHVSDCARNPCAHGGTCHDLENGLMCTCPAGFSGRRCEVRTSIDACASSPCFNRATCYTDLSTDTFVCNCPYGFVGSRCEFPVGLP

positive control antibody for DLL3 (R&D Systems-MAB4315)
EC50 [1]: 0.1 nM

B1: murine anti-DLL3 antibody clone 5E7 (antibody, V domains shown)
VH: EVQLQQSGAELVRPGASVKLSCTASGFNIKDDYIHWVKQWPEQGLEWIGWIDSENGDTEYASKFQGKATMTADTSSNTAYLQLSGLTSEDTAVYYCTTSSYYSYDLFVYWGQGTLVTVSA
VL: DVLMTQTPLTLSVPIGQPASISCKSSQSLLHSNGKTYLNWLLQRPGQSPKLLIYLVSKLESGVPDRFSGSGSGTDFTLKISRVEAEDLGVYYCLQTTHLYTFGGGTKLEIK
notes: Mouse hybridoma antibody, captured by anti-mouse Fc; also called m5E7; murine 5E7
Kd (human DLL3-His [2]): 1.2 nM | binding result (recombinant human DLL4): binds

B2: humanized anti-DLL3 antibody h5E7 (antibody, V domains shown)
VH: QVQLVQSGAEVKKPGASVKVSCKASGFNIKDDYIHWVRQAPGQGLEWMGWIDSENGDTEYASKFQGRVTITADTSANTAYMELSSLRSEDTAVYYCATSSYYSYDLFVYWGQGTLVTVSS
VL: DVQMTQSPSSLSASVGDRVTITCKSSQSLLHSNGKTYLNWLQQKPGQAPKLLLYLVSKLESGVPSRFSGSGSGTDYTLTISSLQPEDFATYYCLQTTHLYTFGQGTKLEIK
notes: also called clone h5E7
EC50 (read off the curve) [3]: ~6 nM | Kd (human DLL3-His [4]): 8.7 nM

B3: humanized anti-DLL3 antibody h5E7-YD-C6 (antibody, V domains shown)
VH: QVQLVQSGAEVKKPGASVKVSCKASGFNIKDDYIHWVRQAPGQGLEWMGWIDSENGDTEYASKFQGRVTITADTSANTAYMELSSLRSEDTAVYYCATSEYYSYDLFVYWGQGTLVTVSS
VL: DVQMTQSPSSLSASVGDRVTITCKSSQSLLHSNGKTYLNWLQQKPGQAPKLLLYLVSKLESGVPSRFSGSGSGTDYTLTISSLQPEDFATYYCLQTTHLYTFGQGTKLEIK
notes: also called C6 variant
Kd (human DLL3-His [4]): 3.3 nM

B4: humanized anti-DLL3 antibody h5E7-YD-F3 (antibody, V domains shown)
VH: QVQLVQSGAEVKKPGASVKVSCKASGFNIKDDYIHWVRQAPGQGLEWMGWIDSENGDTEYASKFQGRVTITADTSANTAYMELSSLRSEDTAVYYCATSSYWSYDLLVYWGQGTLVTVSS
VL: DVQMTQSPSSLSASVGDRVTITCKSSQSLLHSNGKTYLNWLQQKPGQAPKLLLYLVSKLESGVPSRFSGSGSGTDYTLTISSLQPEDFATYYCLQTTHLYTFGQGTKLEIK
notes: also called F3 variant
Kd (human DLL3-His [4]): 1.2 nM
